Experimental findings from patent US20190201542A1 (AbbVie / Abbott, published 2019) are described below.

Test [1] concerns the target T1, DLL3 extracellular domain (amino acids 27-466) (human, UniProt Q9NYJ7 27-466).
T1 construct: also called DLL3 ECD; wild type DLL3 ECD
T1 sequence: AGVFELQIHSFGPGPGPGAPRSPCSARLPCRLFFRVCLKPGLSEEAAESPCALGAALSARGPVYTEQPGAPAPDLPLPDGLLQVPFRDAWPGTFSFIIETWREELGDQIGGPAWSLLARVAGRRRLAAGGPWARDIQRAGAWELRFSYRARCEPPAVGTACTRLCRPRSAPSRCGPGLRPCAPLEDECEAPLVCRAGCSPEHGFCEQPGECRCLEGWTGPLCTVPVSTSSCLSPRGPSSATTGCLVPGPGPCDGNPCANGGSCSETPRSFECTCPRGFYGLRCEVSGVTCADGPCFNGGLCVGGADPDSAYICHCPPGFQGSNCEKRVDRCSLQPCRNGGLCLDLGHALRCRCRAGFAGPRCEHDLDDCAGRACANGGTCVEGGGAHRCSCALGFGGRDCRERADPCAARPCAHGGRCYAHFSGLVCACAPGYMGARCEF
The test is described as follows: fine epitope mapping (phage display peptides or yeast display of DLL3 ECD mutants). The method, then: Fine epitope mapping was further performed on selected antibodies using one of two methods. The first method employed the Ph.D.-12 phage display peptide library kit (New England Biolabs) which was used in accordance with the manufacturer's instructions. The antibody for epitope mapping was coated overnight at 50 μg/mL in 3 mL 0.1 M sodium bicarbonate solution, pH 8, onto a Nunc MaxiSorp tube (Nunc). The tube was blocked with 3% BSA solution in bicarbonate solution. Then, […] input phage in PBS+0.1% Tween-20 was allowed to bind, followed by ten consecutive washes with 0.1% Tween-20 to wash away non-binding phage. Remaining phage were eluted with 1 mL 0.2 M glycine for 10 minutes at room temperature with gentle agitation, followed by neutralization with 150 μL 1M Tris-HCl pH 9. Eluted phage were amplified and panned again with 10¹¹ input phage, using 0.5% Tween-20 during the wash steps to increase selection stringency. DNA from 24 plaques of the eluted phage from the second round was isolated using the Qiaprep M13 Spin kit (Qiagen) and sequenced. Binding of clonal phage was confirmed using an ELISA assay, where the mapped antibody or a control antibody was coated onto an ELISA plate, blocked, and exposed to each phage clone. Phage binding was detected using horseradish peroxidase conjugated anti-M13 antibody (GE Healthcare), and the 1-Step Turbo TMB ELISA solution (Pierce). Phage peptide sequences from specifically binding phage were aligned using Vector NTI (Life Technologies) against the antigen ECD peptide sequence to determine the epitope of binding.
Alternatively, a yeast display method (Chao et al., 2007, PMID: 17406305) was used to map the epitopes of selected antibodies. Libraries of DLL3 ECD mutants were generated with error prone PCR using nucleotide analogues 8-oxo-2′deoxyguanosine-5′-triphosphate and 2′-deoxy-p-nucleoside-5′triphosphate (TriLink Bio) for a target mutagenesis rate of one amino acid mutation per clone. These were transformed into a yeast display format. […]

The target in another test is T2, human DLL3 (human, UniProt Q9NYJ7 27-492, limits assumed).
T2 construct: also called hDLL3; DLL3 protein
T2 sequence: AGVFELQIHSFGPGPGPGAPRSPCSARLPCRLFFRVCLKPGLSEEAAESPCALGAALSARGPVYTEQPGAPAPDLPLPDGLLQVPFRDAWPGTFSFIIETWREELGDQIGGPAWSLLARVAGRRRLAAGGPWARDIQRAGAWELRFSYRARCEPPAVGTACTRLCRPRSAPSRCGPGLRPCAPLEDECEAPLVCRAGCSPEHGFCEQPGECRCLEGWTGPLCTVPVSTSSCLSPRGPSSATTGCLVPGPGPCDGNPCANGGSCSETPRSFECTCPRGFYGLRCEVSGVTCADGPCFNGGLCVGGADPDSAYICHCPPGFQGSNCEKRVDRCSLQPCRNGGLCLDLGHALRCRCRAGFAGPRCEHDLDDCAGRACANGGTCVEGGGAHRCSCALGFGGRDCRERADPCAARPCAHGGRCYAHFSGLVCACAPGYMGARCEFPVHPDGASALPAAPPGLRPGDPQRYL
Description: screen on immobilized hDLL3 or h293-hDLL3 cells. Summed up: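 Hybridoma supernatants from single cells of mice immunized with human DLL3 were screened after 10 days in culture. Binding by flow cytometry was scored positive when above the control. In the solid-phase ELISA, plates coated with DLL3-His at 0.5 μg/ml were probed with HRP anti-mouse IgG and TMB and read at OD 450.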

Test [2] deals with T3, hASCL1 in 293 cells engineered to express ASCL1 (293-ASCL1) (human, UniProt P50553 1-236).
T3 construct: whole, on cells; also called DDDK-tagged hASCL1 from pLMEGPA-hASCL1-NFlag
T3 sequence (looked up): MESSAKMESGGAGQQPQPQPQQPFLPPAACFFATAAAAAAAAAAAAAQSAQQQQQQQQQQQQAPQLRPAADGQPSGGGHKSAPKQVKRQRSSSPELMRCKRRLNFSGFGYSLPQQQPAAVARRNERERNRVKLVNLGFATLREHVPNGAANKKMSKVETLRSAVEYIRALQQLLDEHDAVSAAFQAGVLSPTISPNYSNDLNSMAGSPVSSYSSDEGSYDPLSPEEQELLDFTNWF
Description: immunohistochemistry on FFPE sections, antibody at 10 ug/ml. The method, then:
IHC was performed essentially as follows. Planar sections of formalin fixed and paraffin embedded (FFPE) tissues were cut and mounted on glass microscope slides. After xylene de-paraffinization 5 μm sections were pre-treated with Antigen Retrieval Solution (Dako) for 20 mins. at 99° C., cooled to 75° C. and then treated with 0.3% hydrogen peroxide in PBS followed by Avidin/Biotin Blocking Solution (Vector Laboratories). FFPE slides were then blocked with 10% horse serum in 3% BSA in PBS buffer and incubated with a primary anti-ASCL1 antibody (clone SC72.2), diluted to 10 μg/ml in 3% BSA/PBS, for 30 mins. at room temperature. The FFPE slides were incubated with biotin-conjugated horse anti-mouse antibody (Vector Laboratories), diluted to 2.5 μg/ml in 3% BSA/PBS, for 30 mins. at room temperature followed by incubation in streptavidin-HRP (ABC Elite Kit; Vector Laboratories). Chromogenic detection was developed with 3,3′-diaminobenzidine (Thermo Scientific) for 5 mins. at room temperature and tissues were counterstained with Meyer's hematoxylin (IHC World), washed with alcohol and immersed in xylene. Sections were then viewed by brightfield microscopy and ASCL1 expression was noted.
PDX tumors were stained by IHC (FIG. 12) and ASCL1 protein expression by IHC correlates with the expected ASCL1 mRNA expression based on microarray results.

The target of a further test is T4, human ASCL1 (human, UniProt P50553 1-236, limits assumed).
T4 construct: Transcription factor; also called hASCL1; immobilized human ASCL1
T4 sequence (looked up): T3 sequence (looked up)
Description: screen on immobilized hASCL1 or h293-hASCL1 cells.

Positions count from the first letter of the chain named.

B1: SC16.34 (antibody, V domains shown)
VH: QIQLVQSGPELKRPGETVKISCKASGYTFTNYGMNWVKQAPGKGLKWMGWINTYTGDPTYADDFKGRFAFSLETSASTAYLQINNLKNEDTATYFCARIGGNSPSDYWGQGTSLTVSS
VL: SIVMTQTPKFLLVSAGDRVTITCKASQSVSNDVAWYQQKPGQSPKLLIYYASNRYSGVPDRFTGSGYGTDFTFTISTVQAEDLAVYFCQQDYSSPWTFGGGTKLEIK
notes: murine mAb
For B1, the binding result (in test [1]; with human DLL3) was “binds” in each case.

B2: SC16.56 (antibody, V domains shown)
VH: B1 VH with R13K, G49A, D57E, Y80S, N84I, G101D, N102S, S113T
VL: B1 VL with A34V, S56T, T63A, T72S, S93T, K107R
notes: murine mAb
Turning to B2, the binding result (in test [1]; in the test with human DLL3) was “binds” each time.

B3: SC72.2 (antibody, V domains shown)
VH: QVQLQQSGAELVRPGASVTLSCKASGYTFIDYEMHWVKQTPVHGLEWIGAIDPETGGTTYNQNFKGKATLTADKSSNTAYMELRSLTSGDSAVYYCSRGGLDYWGQGTTLTVSS
VL: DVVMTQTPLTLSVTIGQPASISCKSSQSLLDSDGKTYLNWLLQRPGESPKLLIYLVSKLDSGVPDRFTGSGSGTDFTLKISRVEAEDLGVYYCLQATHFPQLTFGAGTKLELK
notes: murine mAb; also called anti-ASCL1 antibody clone SC72.2
Turning to B3, the binding result (in test [2]; in the test with human ASCL1) was “binds” each time.

B4: SC16.23 (antibody, V domains shown)
VH: QVTLKESGPGILQPSQTLSLTCSFSGFSLSTSNTGIGWIRQPSGTGLEWLAHIWWNDDKYYNPSLKSRLTISKETSNNQVFLKITNVDTADTASYFCVQIGRDYSNYAWYFDVWGAGTTVTVSS
VL: QIVLTQSPAIMSASPGEKVTLTCSASSSVSSRYLYWYQQKPGSSPKLWIYSTSNLASGVPARFSGSGSGTSYSLIISSMEAEDAASYFCHQWSNYPLTFGAGTKLELK
notes: murine mAb
Turning to B4, the binding result (in test [1]; in the test with human DLL3) was “binds” each time.
